Experimental data from the DeepSol protein solubility set.

test: soluble on expression in E. coli; label from the status in PepcDB or PDB records

Sequence | soluble on expression in E. coli
MILQEAKIRAKELEIGAKSKYENETSKVIKEYESYLIKLEKQEAKNQQRLERETQQLEEERRRINHKQASLSGMIEELEKLKGDYRSKLTESLEILSRVAGLTQEEAKELALAKATEESRAQIAQIVRKYESEAKEEGRKRANYILAQATTRFAGEFAAERLINVVNLPNDELKGRIIGKEGRNIKTLEMLSGVDVIIDDTPGAIVLSSFNLYRRAIATRTIEALVEDGRIQPARIEEVYKKVEQEFEEKVLEEGEGIVLDMELGYVHPELKKLIGRLKYRASYGQNALGHSLEVANLAGVIAGELGGDVKLAKRAGLLHDIGKALTHDFGGSHVDLGAEVCSRYKEHPVVINAIFAHHGHEEAKSIESAAVCAADALSAARPGARREVLESFLKRVQEIEKIAMEKLGVRQAYAINAGREVRVIVNADLINDEESVLLAQEIAKEIETKVQYPGEIKVSVIREVRAVEFAK | not soluble
MSLFARQLQSLTASGIRTQQVRLASTEVSFHTKPCKLHKLDNGPNTSVTLNREDALKYYRDMQVIRRMESAAGNLYKEKKIRGFCHLYSGQEACAVGMKAAMTEGDAVITAYRCHGWTWLLGATVTEVLAELTGRVAGNVHGKGGSMHMYTKNFYGGNGIVGAQQPLGAGVALAMKYREQKNVCVTLYGDGAANQGQLFEATNMAKLWDLPVLFVCENNGFGMGTTAERSSASTEYYTRGDYVPGIWVDGMDILAVREATKWAKEYCDSGKGPLMMEMATYRYHGHSMSDPGTSYRTREEIQEVRKTRDPITGFKDRIITSSLATEEELKAIDKEVRKEVDEALKIATSDGVLPPEALYADIYHNTPAQEIRGATIDETIVQPFKTSADVLKSIGRA | not soluble
SNDLSQWSISKDSNLDSPWIEGIPGCGIPGAGSLVEHIDRQILVLQRDGRYIVGLLRSYDQYANLVLENTFERFVLNDSYCDEPLGVFIIRGENVALLGEVDGEKESQWLSHLHTVSLEDTKKTIRGKRQATKALLHSQPERVEWTFYDDAFF | soluble
MAHHHHHHMSHIYDMLGINVEKLKTKKKQKEKISKKQLNFLKDNDNLFSLPTTSKIISLNNKNVSVWRLVKFRSKCRNDDLILTKWSKIGYKNDKKEFNEDKIEDDNTFEKFNKKINIIKYNDDLYYREIQPLNTGWTKEETDYLFNLCEKYDCHFIIVNDVYDIKYKRTIEEIKERFYTVTKKVMEDKFDQQIKLEEAKKIKNNNDILKLKEAKAKHPLIKFTYNMQADLERKNIIHKTYTVSKKDVMLEETTLENIKKFESKIKLELKKAADMKKLKKKFELTTEEIVPITKLPEEDKEAKNIYSARYYFQKLKIDISYFDKLDIYLKENNIEKPTIYTENICFLYGVLRTDVAILLNLRKKIEKLKQEREFWKGQMNNLEEEYLKKQQKT | not soluble
TETMTVTATGNARSSFEAPMMVSVIDTSAPENQTATSATDLLRHVPGITLDGTGRTNGQDINMRGYDHRGVLVLVDGIRQGTDTGHLNGTFLDPALIKRVEIVRGPSALLYGSGALGGVISYDTVDAKDLLQEGQSSGFRVFGTGGTGDHSLGLGASAFGRTENLDGIVAWSSRDRGDLRQSNGETAPNDESINNMLAKGTWQIDSAQSLSGLVRYYNNDAREPKNPQTVEASESSNPMVDRSTIQRDAQLSYKLAPQGNDWLNADAKIYWSEVRINAQNTGSSGEYREQITKGARLENRSTLFADSFASHLLTYGGEYYRQEQGSHHHHHHHPGGATTGFPQAKIDFSSGWLQDEITLRDLPITLLGGTRYDSYRGSSDGYKDVDADKWSSRAGMTINPTNWLMLFGSYAQAFRAPTMGEMYNDSKHFSIGRFYTNYWVPNPNLRPETNETQEYGFGLRFDDLMLSNDALEFKASYFDTKAKDYISTTVDFAAATTMSYNVPNAKIWGWDVMTKYTTDLFSLDVAYNRTRGKDTDTGEYISSINPDTVTSTLNIPIAHSGFSVGWVGTFADRSTHISSSYSKQPGYGVNDFYVSYQGQQALKGMTTTLVLGNAFDKEYWSPQGIPQDGRNGKIFVSYQW | soluble
MRAPLSTYRRPQRTDFVTPTGGPFFAKQDKALNTIDLKMAHDLKLRGYRVKVAVVDEGVRSDHPLLNVEKKYGGDYMADGTRTYPDPKRQGRHGTSVALVLAGQDTDTYRGGVAPNADLYSANIGTRAGHVSDEAAFHAWNDLLGHGIKIFNNSFATEGPEGEQRVKEDRNEYHSAANKQNTYIGRLDRLVRDGALLIFAAGNGRPSGRAYSEVGSVGRTPRVEPHLQRGLIVVTAVDENGRLETWANRCGQAQQWCLAAPSTAYLPGLDKDNPDSIHVEQGTSLSAPLVTGAAVLVQDRFRWMDNDNLRTTLLTTAQDKGPYGVDPQYGWGVLDVGRAVQGPAQFAFGDFVARVTDTSTFGLEHHHHHH | not soluble
MGSDKIHHHHHHMDVTQLKMLHNAKVISEIKKGFSVDRKYQVDETYLVRVFPIDLLQERKQEFKIIQALDSQTPFVPKAYDFGFIEREGYMIISYLRGEDAESGMTHLSHSEQFKAGFSAGEILREVHKIPLDIPKMNWLDFQTAKFKRKVEELKELEITASFLTDTEKFVYKNIARLKNRPICLQHGDFHPANIILNNKKFVGLIDFNRLEFGDPLFDLAKIGFFTTEVSIPFARGNILGYIDKEEVTDFWNLYALYTAMHITSAVSWAAKNESRNFKKLMDYAVKTAASHDNFQKIVPNWMNEEEFK | not soluble
MGDIMRPIPFEELLTRIFDEYQQQRSIFGIPEQQFYSPVKGKTVSVFGETCATPVGPAAGPHTQLAQNIVTSWLTGGRFIELKTVQILDRLELEKPCIDAEDECFNTEWSTEFTLLKAWDEYLKAWFALHLLEAMFQPSDSGKSFIFNMSVGYNLEGIKQPPMQQFIDNMMDASDHPKFAQYRDTLNKLLQDDAFLARHGLQEKRESLQALPARIPTSMVHGVTLSTMHGCPPHEIEAICRYMLEEKGLNTFVKLNPTLLGYARVREILDVCGFGYIGLKEESFDHDLKLTQALEMLERLMALAKEKSLGFGVKLTNTLGTINNKGALPGEEMYMSGRALFPLSINVAAVLSRAFDGKLPISYSGGASQLTIRDIFDTGIRPITMATDLLKPGGYLRLSACMRELEGSDAWGLDHVDVERLNRLAADALTMEYTQKHWKPEERIEVAEDLPLTDCYVAPCVTACAIKQDIPEYIRLLGEHRYADALELIYQRNALPAITGHICDHQCQYNCTRLDYDSALNIRELKKVALEKGWDEYKQRWHKPAGSGSRHPVAVIGAGPAGLAAGYFLARAGHPVTLFEREANAGGVVKNIIPQFRIPAELIQHDIDFVAAHGVKFEYGCSPDLTIEQLKNQGFHYVLIATGTDKNSGVKLAGDNQNVWKSLPFLREYNKGTALKLGKHVVVVGAGNTAMDCARAALRVPGVEKATIVYRRSLQEMPAWREEYEEALHDGVEFRFLNNPERFDADGTLTLRVMSLGEPDEKGRRRPVETNETVTLLVDSLITAIGEQQDTEALNAMGVPLDKNGWPDVDHNGETRLTDVFMIGDVQRGPSSIVAAVGTARRATDAILSRENIRSHQNDKYWNNVNPAEIYQRKGDISITLVNSDDRDAFVAQEAARCLECNYVCSKCVDVCPNRANVSIAVPGFQNRFQTLHLDAYCNECGNCAQFCPWNGKPYKDKITVFSLAQDFDNSSNPGFLVEDCRVRVRLNNQSWVLNIDSKGQFNNVPPELNDMCRIISHVHQHHHYLLGRVEV | soluble
MAHHHHHHMVHWVISQFTTNVGLQQKSSIELLNEANREYESSSPFSVLVQHERAVERLTTAQRGLAASGAGSLARLDRDQLPSWTLRVIDEDCTMCFDNVTYASAVAADAGRSTNKTGHHKQKGLSVFATTSAPLGLMGPMLFAMASVTDDVDVAAELPRWQWVTWSYAQQRRFVHASQSRSTGERPRHLIVLGIPSTDQPMRYPLRDAQRATWLTYREVARTENNFTGALLQLYVFAAAEHDSEDSTHSAVDMVQLAPTVSEYAAATEQHLAVEAGDVNNAPPYLQRRVVLRDGWRDIPRSDDAVWRSPCAGVRTTVVTAASLVAGTSSLAALSAQLSLPVTPAFTAAAQYVCHVSAALWQEALHHRNSLWLDFLTDRKPTTKKKMGMSISWGIPTEVGMSQKTVLWLNYAYTAFPDVPYIMKGDDDMYLKVPQYLSDLRHVRGGWQKPRNLTVTIPHRGVIPPTLAIDDAEECLYRVWWTYSKKIAYGNGVGYILDRRLIQAALNPFDGFNALLMKLLTNPYDYRLEKEYLSLNMQYEDMHIGKQIRDHHDAVERFCPKKRVCYMADRRFRAHQILRPKPVKLTWISVMAHFGMPAIPYYVHYFHKNEFKVAEEAKRLIAQGIDAKTIEENATQRMHEWVASQVPSTLVGLGASFHLDWVRGDPHTAYTVAEEDEVAVYDVRYKLRRRNDVACVLESGKR | not soluble
MTVPLTTRDRIALIPIAEIHILNPRTRNKKIHHELIENIKTVGLKRPITVSRRVSTQGSFNYDLVCGQGRLEAFLALEATEIPAFVIDSAEEDCLVMSLVENVARRQHRPIDLMNEVGRLKGRGKTDAEIATIIGSTSSWVNMIVNLIERGEEKLLSAVETGLIPLSMATDIARSSESDIQDLLTDAYERGIRGKKITKLRHLLELRAKKDKLVRGNPLGVSQNKKKRLTPTDLRHLFEREAERQRLMVKKAAFTHDRVVFSIQAIKELLAVSDFEKLLSTEHLDSMPKLIQARLSNRGGL | not soluble
MYCIGCGAKIQTEAKNALGFLPAGALKKKIAERDQMEAVQAGDEGSEASIKTEDLYCQRCFRLRHYNEIAPTSLTDADFLRLLKEIGQHDALIVNVVDIFDFNGSLIPNLHKLTGGNDLLMVANKRDVLPKSLKVGKLTAWLREQAASRSLKPKDILVTSAQNKDDVAELMEAIEYYRRGRDVYVVGVTNVGKSTLINAIIKSASGSEDVITTSRFPGTTLDKIEIPLDEDSALIDTPGIIHRGQIAHYLEPEDLKYVSPRKEIKPKTYQLDPEQTLFFGGLARFDFISGERQGMTAYFDNEINVHRTKLEGATEFYEKHKGELLAPALVGAKLVRREFKITDKSDIVFSGLGWVRVPQKAVVAAWVPEGVDVVVRKALIGLEHHHHHH | soluble
MKDQNGVASTDDSVLPSWSNPDVGQFIVSTYNEYEYKRIPFRELEFGCLLCRMRTFNHEGMKKHLRDHVVHKKSSCEHEKPGKTGIHHQVDKAGNGVMPENGQLVQCYIEIKLADCYTSWSNYESQNPIIFKIGFGEVIPGLDIGIPKMKVGEIATFHVSGKYGYGRAGFRGLIPRNASLTCKVRLFNCSWDSYAKIGVDRQILVQGDNVTKSKNGQTVTCHYVLILVDGTKIDSSRDRETPFKFKIGKGEVIKGWDQGVAQMSVKEKSKLTIAPAFGFEKGKLPAGIPA | not soluble
SELLCHEVDPVRRAVRDRNLLRDDRVLQNLLTIEERYLPQCSYFKCVQKDIQPYMRRMVATWMLEVCEEQKCEEEVFPLAMNYLDRFLAGVPTPKSHLQLLGAVCMFLASKLKETSPLTAEKLCIYTDNSIKPQELLEWELVVLGKLKWNLAAVTPHDFIEHILRKLPQQREKLSLIRKHAQTFIALCATDFKFAMYPPSMIATGSVGAAICGLQQDEEVSSLTCDALTELLAKITNTDVDCLKACQEQIEAVLLNSLQQYRQDQRDGSKSEDELDQASTPTDVRDIDL | soluble
MVSLEKNDHLMLARQLPLKSVALILAGGRGTRLKDLTNKRAKPAVHFGGKFRIIDFALSNCINSGIRRMGVITQYQSHTLVQHIQRGWSFFNEEMNEFVDLLPAQQRMKGENWYRGTADAVTQNLDIIRRYKAEYVVILAGDHIYKQDYSRMLIDHVEKGARCTVACMPVPIEEASAFGVMAVDENDKIIEFVEKPANPPSMPNDPSKSLASMGIYVFDADYLYELLEEDDRDENSSHDFGKDLIPKITEAGLAYAHPFPLSCVQSDPDAEPYWRDVGTLEAYWKANLDLASVVPELDMYDRNWPIRTYNESLPPAKFVQDRSGSHGMTLNSLVSGGCVISGSVVVQSVLFSRVRVNSFCNIDSAVLLPEVWVGRSCRLRRCVIDRACVIPEGMVIGENAEEDARRFYRSEEGIVLVTREMLRKLGHKQER | not soluble
